This passage reports Kd results from publication PMC8064889 (2021).

Usually Kd stands for a measure of binding affinity in units of concentration.

The target in this assay is SARS-CoV-2 RBD, His6-tagged, for biolayer interferometry (SARS-CoV-2, UniProt P0DTC2 319-541). Description: BLI. On the technique in general: Biolayer interferometry detects binding as a change in optical thickness at a sensor tip.

B1: 47D1 Fab (Fab, V domains shown)
VH: QVQLVQSGAEVKKPGSSVRVSCKASGGTFSTYPISWVRQAPGQGLEWMGGIIPIFGTAKSAQKFQGRVTITADEFTSTAYMEMSSLRSEDTAMYYCAREGRRYGSGWYISTGYFDYWGQGTLVTVSS
VL: QLVLTQPASVSGSPGQSIIVSCTGTSSDVGGYKFVSWYQQHPGKAPRVMIYDVSNRPSGVSNRFSGSKSGNTASLTISGLQADDEADYYCSSYTNSSTVVFGGGTKVTVL
Take B1: the equilibrium dissociation constant (Kd) was 2 nM.
